Experimental data as given in IntAct's records for PubMed 19893486.

B1: Rho guanine nucleotide exchange factor TIAM2 (Mus musculus), Q6ZPF3 (parent)
chain: MGNSESQYTFQGSKNHSNTVTGAKQKPCSLKIRSVHAKDEKSLHGWTHGSSGAGYKSRSLARSCLSHFKNHQPYATRLSGPTCKVSKGTTYSKHRANTPGNDFQGNSGAFLPENGFHYVDRESEESHITSNGHLLTCYGRKESLASTPPGEDHRSPRVLIKTLGKLDGCLRVEFHNGGNPHKGTSEDPSGPVRLLRYSPTLASETCPVRETRRHSAAGSPSSQRPSPTDSRLRSSKGSSLSSESSWYDSPWGNAGEVSEVEGSFLAPSTPDPSLPSSFPPSDTKKPFNQSSSLSSLRELYKDPNLGCRSPSGTCLSSNEYISSQVSLNNRVSFASDMDVPSRVDHRDPLHYSSFTLPCRKSKALTEDAAKKDTLKARMRRFSDWTGSLSRKKRKLQEPRSMEGSEYFDSHSDGLNAEGQVPAQTSSLLWSGGSAQTLPHRSESTHAISVDPLRQNIYENFMRELEMSRSNTEHVETSTETMESSSESVSSLEQLDLLFEKEQGVVRKAGWLFFKPLVTLQKERKLELVARRKWKQYWVTLKGCTLLFYETYGKNSTEQNSAPRCALFAEDSIVQSVPEHPKKEHVFCLSNSCGDVYLFQATSQTDLENWVTAIHSACASLFAKKHGKEDTVRLLKSQTRSLLQKIDMDSKMKKMAELQLSVVSDPKNRKAIENQIRQWEQNLEKFHMDLFRMRCYLASLQGGELPNPKSLLAATSRPSKLALGRLGVLSVSSFHALVCSRDDSTLRKRTLSLTQRGKSKKGIFSSLKGLDTLARKGREKRASITQMFDSSHSHGFLGTQLPQKSTNSNKAHDLHLYGSAVDSALRDSMWEVQTYVHFQDNEGVTVTIKPEHRVEDVLALVCKMRQLEPTHYGLQLRKVVDKSVEWCVPALYEYMQEQVYDEIEVFPLSVYDVQLTKTGDMTDFGFAVTVQVDEHQHLNRIFISDVLPDSLAYGGGLRKGNEITSLNGEPVSDLDIQQMEALFSEKSVGLTLVARPVTTRRTLCASWSDSDLFSRDQKSLPPSPNQSQLLEEFLDNFRKTATSDFSNVPEITTGLKRSQTEGTLDQVPHREKMEQTFLSADQIAELCRDLNNTHTNSMEAPTESHDPPPRPLARHLSDADRLRKVIQELVDTEKSYVKDLSCLFELYLEPLQNETFLTQDEMESLFGSLPEMLEFQKVFLETLEDAISASSDFSVLETPSQFRKLLFSLGGSFLYYADHFKLYSGFCANHIKVQRVLERAKTDKAFKAFLDARNPTKQHSSTLESYLIKPVQRVLKYPLLLKELVSLTDHESEEHYHLTEALKAMEKVASHINEMQKIYEDYGMVFDQLVAEQSGTEKEVTELSMGELLMHSTVSWLNPFLSLGKARKDIELTVFVFKRAVILVYKENCKLKKKLPSNSRPAHNSADLDPFKFRWLIPISALQVRLGNTAGTENNSTWELIHTKSEIEGRPETIFQLCCSDSENKTSIVKVIRSILRENFRRHIKCELPLEKTCKDRLVPLKNRVPVSAKLASSRSLKGLRTSSSSEWPSEPSKGNSLDSDECSLSSGTQSSGCPVAESRRDSKSTELEKDAQEGLAEFPDGLIKESDILSDEDEDFHHPLKQGSPTKDIEIQFQRLKISEESDVHPVGQQPLTESGEQPKLVRGHFCPIKRKANSTKRGRGTLLKAQTRHQSLDSHPETASIDLNLVLEREFSVQSLTSVVNEEGFYETQSHGKS
B2: Rho guanine nucleotide exchange factor TIAM2 (Mus musculus), Q6ZPF3 (parent)
chain: B1 chain
partner: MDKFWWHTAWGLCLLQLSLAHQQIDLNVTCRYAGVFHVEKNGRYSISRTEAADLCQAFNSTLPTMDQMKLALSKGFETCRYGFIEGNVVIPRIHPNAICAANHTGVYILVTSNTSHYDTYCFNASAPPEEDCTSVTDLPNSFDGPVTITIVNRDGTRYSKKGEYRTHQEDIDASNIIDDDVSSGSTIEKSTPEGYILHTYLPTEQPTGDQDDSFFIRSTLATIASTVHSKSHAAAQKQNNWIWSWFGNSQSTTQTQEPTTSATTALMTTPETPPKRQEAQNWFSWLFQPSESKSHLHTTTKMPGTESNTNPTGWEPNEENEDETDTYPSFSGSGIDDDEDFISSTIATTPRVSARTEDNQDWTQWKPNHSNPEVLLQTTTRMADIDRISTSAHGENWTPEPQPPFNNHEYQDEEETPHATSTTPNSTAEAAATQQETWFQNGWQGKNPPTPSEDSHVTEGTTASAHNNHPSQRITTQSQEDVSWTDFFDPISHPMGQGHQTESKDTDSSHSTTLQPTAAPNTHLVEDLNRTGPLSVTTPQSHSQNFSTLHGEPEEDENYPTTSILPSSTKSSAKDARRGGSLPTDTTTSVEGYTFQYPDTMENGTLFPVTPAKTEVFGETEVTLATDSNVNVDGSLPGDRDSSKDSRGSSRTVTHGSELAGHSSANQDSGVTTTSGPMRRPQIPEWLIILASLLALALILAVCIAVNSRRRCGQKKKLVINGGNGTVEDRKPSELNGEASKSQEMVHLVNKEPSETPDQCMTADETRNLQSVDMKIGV
B3: Rho guanine nucleotide exchange factor TIAM1 (Mus musculus), Q60610 (parent)
chain: MGNAESQNVDHEFYGEKHASLGRKHTSRSLRLSHKTRRTRHASSGKAIHRNSEVSTRSSSTPSIPQSLAENGLEPFSQEGALDDFGDPIWVDRVDMGLRPVSYTDSSVTPSVDGSIVLTAASVQSMPDSEESRLYGDDATYLAEGGRRQCPYTSNGPTFMETASFKKKRSKSADIWREDSLEFSLSDLSQEHLTSNEEILGSAEEKDCEEARGMETEASPRQLSTCQRANSLGDLYAQKNSGVKANGGPRNRFSSYCRNLVSDIPDLAKHKMPPAAAEETPPYSNYNTLPCRKSHCLSEGATNPQISLSKSMQGRRAKTTQDVNTGEGSEFADSGIEGATTDTDLLSRRSNATNSSYSPPTGRAFVGSDSGSSSTGDRARQGVYENFRRELEMSTTNSESLEEAGSAHSDEQSSGTLSSPGQSDILLTAAQGTVRKAGALAVKNFLVHKKNKKVESATRRKWKHYWVSLKGCTLFFYETDGRSGIDHNSVPKHAVWVENSIVQAVPEHPKKDFVFCLSNSLGDAFLFQTTSQTELENWITAIHSACAAAVARHHHKEDTLRLLKSEIKKLEQKIDMDEKMKKMGEMQLSSVTDSKKKKTILDQIFVWEQNLEQFQMDLFRFRCYLASLQGGELPNPKRLLAFASRPTKVAMGRLGIFSVSSFHALVAARTGEIGVRRRTQAMSRSASKRRSRFSSLWGLDTTSKKKQGRPTINQVFGEGTDAVKRSLEGIFDDTVPDGKREKEVVLPSVHQHNPDCDIWVHEYFTPSWFCLPNNQPALTVVRPGDTARDTLELICKTHQLDHSAHYLRLKFLMENRVQFYIPQPEEDIYELLYKEIEICPKVTQNIHIEKSDAAADNYGFLLSSVDEDGIRRLYVNSVKETGLASKKGLKAGDEILEINNRAAGTLNSSMLKDFLSQPSLGLLVRTYPEPEGGVELLENPPHRVDGPVDLGESPLAFLTSNPGHSLSSEQGSSAETAPEEGEGPDLESSDETDHSSKSTEQVAAFCRSLHEMSPSDSSPSPQDATSPQLATTRQLSDADKLRKVICELLETERTYVKDLNCLMERYLKPLQKETFLTQDELDVLFGNLTEMVEFQVEFLKTLEDGVRLVPDLEKLEKVDQFKKVLFSLGGSFLYYADRFKLYSAFCASHTKVPKVLVKAKTDTAFKAFLDAQNPRQQHSSTLESYLIKPIQRVLKYPLLLRELFALTDAESEEHYHLDVAIKTMNKVASHINEMQKIHEEFGAVFDQLIAEQTGEKKEVADLSMGDLLLHTSVIWLNPPASLGKWKKEPELAAFVFKTAVVLVYKDGSKQKKKLVGSHRLSIYEEWDPFRFRHMIPTEALQVRALPSADAEANAVCEIVHVKSESEGRPERVFHLCCSSPESRKDFLKSVHSILRDKHRRQLLKTESLPSAQQYVPFGGKRLCALKGARPAMSRAVSAPSKSLGRRRRRLARNRFTIDSDAISASSPEKEPQQPAGGGDTDRWVEEQFDLAQYEEQDDIKETDILSDDDEFCESLKGASVDRDLQEQLQAASISQRARGRRTLDSHASRMTQLKKQAALSGINGGLESASEEVIWVRREDFAPSRKLNTEI
B4: CD44 antigen (Mus musculus), P15379 (parent)
chain: B2 partner

Variants of: B1
Conditions: with PARD3, Q8TEW0-2
Chain of PARD3, Q8TEW0-2 (Q8TEW0 other isoform, or with tags, fused parts or gaps): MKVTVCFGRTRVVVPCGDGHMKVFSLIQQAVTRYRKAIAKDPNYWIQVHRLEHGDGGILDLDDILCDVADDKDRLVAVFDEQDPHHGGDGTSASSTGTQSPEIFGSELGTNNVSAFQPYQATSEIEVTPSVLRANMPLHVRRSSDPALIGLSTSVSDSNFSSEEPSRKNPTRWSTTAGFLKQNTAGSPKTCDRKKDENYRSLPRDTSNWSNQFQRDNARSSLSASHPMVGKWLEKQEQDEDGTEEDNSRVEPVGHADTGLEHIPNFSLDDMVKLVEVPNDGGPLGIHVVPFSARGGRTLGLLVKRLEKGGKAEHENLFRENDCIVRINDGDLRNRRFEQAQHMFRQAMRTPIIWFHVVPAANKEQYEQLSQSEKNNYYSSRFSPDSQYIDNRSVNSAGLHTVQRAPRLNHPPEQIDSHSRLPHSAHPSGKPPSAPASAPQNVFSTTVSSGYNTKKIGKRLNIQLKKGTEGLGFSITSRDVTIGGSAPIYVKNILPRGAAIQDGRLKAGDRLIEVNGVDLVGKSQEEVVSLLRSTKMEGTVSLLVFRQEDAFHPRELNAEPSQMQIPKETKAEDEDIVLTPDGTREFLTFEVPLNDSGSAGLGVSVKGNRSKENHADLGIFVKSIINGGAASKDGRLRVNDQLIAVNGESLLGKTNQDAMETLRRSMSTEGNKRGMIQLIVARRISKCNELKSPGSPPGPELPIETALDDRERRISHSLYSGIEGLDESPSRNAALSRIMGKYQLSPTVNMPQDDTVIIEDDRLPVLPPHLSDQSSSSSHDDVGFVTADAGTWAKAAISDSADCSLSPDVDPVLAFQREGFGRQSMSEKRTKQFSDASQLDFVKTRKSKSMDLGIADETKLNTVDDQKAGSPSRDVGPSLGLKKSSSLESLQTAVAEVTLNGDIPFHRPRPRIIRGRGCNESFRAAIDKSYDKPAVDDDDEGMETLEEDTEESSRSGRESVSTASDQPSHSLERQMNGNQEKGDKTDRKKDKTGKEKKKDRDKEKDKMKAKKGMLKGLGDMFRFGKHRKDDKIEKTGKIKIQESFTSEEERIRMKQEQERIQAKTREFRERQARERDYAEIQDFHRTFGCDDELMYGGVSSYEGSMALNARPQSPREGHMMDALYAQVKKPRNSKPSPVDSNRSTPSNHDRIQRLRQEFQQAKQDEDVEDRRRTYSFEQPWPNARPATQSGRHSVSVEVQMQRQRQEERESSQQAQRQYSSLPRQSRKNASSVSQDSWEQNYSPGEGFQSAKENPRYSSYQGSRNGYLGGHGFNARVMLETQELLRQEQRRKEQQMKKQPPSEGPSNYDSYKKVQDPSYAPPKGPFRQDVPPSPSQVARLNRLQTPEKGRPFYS

effect of a mutation on the interaction | Variant
decreasing interaction | R716A

Variants of: B1
Conditions: with pard3_human PARD3, Q8TEW0
Target sequence in this assay (Q8TEW0 whole entry): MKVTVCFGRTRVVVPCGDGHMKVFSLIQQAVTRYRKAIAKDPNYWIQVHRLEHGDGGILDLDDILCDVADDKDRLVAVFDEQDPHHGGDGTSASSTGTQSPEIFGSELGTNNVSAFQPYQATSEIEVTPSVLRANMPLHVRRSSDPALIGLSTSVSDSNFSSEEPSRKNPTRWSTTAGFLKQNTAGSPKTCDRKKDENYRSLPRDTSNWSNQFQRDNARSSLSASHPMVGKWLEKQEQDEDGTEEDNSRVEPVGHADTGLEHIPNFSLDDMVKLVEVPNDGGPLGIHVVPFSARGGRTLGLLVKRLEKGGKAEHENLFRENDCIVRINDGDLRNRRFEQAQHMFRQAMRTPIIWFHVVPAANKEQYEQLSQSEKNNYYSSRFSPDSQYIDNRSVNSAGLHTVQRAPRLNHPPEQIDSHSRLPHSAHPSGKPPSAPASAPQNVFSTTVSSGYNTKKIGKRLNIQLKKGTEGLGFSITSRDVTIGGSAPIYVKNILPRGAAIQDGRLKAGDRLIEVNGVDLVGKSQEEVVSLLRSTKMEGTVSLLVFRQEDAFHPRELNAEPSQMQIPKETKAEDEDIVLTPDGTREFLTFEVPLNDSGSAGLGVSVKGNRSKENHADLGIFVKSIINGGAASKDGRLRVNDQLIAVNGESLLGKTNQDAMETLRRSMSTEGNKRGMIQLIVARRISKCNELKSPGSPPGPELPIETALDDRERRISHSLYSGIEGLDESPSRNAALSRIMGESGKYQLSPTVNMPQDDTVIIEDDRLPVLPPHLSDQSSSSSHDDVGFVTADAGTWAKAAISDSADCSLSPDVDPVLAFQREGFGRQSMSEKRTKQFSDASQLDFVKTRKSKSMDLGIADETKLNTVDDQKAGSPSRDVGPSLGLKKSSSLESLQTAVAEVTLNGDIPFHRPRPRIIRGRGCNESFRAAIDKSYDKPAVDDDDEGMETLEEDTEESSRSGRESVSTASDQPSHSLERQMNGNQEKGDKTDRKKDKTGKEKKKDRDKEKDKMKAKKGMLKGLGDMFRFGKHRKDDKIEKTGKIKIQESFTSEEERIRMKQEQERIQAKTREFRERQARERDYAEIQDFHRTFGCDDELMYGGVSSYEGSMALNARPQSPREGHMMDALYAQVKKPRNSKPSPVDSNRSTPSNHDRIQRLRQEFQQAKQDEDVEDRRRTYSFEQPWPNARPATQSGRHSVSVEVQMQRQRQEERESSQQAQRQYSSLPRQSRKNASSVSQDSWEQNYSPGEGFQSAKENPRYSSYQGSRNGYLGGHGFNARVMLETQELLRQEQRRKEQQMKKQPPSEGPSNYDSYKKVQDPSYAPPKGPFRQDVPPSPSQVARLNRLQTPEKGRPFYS

effect of a mutation on the interaction | Variant
decreasing interaction | R716A
decreasing interaction | R693A

Variants of: B1
Conditions: with PARD3, Q8TEW0-2
Remark: another data set of the same source

effect of a mutation on the interaction | Variant
decreasing interaction | K624A

Variants of: B1
Conditions: with PARD3, Q8TEW0-2
Remark: another data set of the same source

effect of a mutation on the interaction | Variant
decreasing interaction | K627A

Variants of: B1
Conditions: with PARD3, Q8TEW0-2
Remark: another data set of the same source

effect of a mutation on the interaction | Variant
decreasing interaction | R632A

Variants of: B1
Conditions: with PARD3, Q8TEW0-2
Remark: another data set of the same source

effect of a mutation on the interaction | Variant
decreasing interaction | R693A

Variants of: B2
Conditions: with cd44_mouse Cd44, P15379

effect of a mutation on the interaction | Variant
decreasing interaction | K627A

Variants of: B2
Conditions: with cd44_mouse Cd44, P15379
Remark: another data set of the same source

effect of a mutation on the interaction | Variant
decreasing interaction | R632A

Variants of: B2
Conditions: with cd44_mouse Cd44, P15379
Remark: another data set of the same source

effect of a mutation on the interaction | Variant
decreasing interaction | R716A

Variants of: B2
Conditions: with cd44_mouse Cd44, P15379
Remark: another data set of the same source

effect of a mutation on the interaction | Variant
decreasing interaction | R693A

Variants of: B2
Conditions: with cd44_mouse Cd44, P15379
Remark: another data set of the same source

effect of a mutation on the interaction | Variant
decreasing interaction | K624A

Variants of: B3
Conditions: with pard3_human PARD3, Q8TEW0
Target sequence in this assay (Q8TEW0 whole entry): as above

effect of a mutation on the interaction | Variant
decreasing interaction | R622A
decreasing interaction | R645A

Variants of: B4
Conditions: with tiam1_mouse Tiam1, Q60610

effect of a mutation on the interaction | Variant
decreasing interaction | T762A

Variants of: B4
Conditions: with tiam1_mouse Tiam1, Q60610
Remark: another data set of the same source

effect of a mutation on the interaction | Variant
disrupting interaction | E755K

Variants of: B4
Conditions: with tiam1_mouse Tiam1, Q60610
Remark: another data set of the same source

effect of a mutation on the interaction | Variant
decreasing interaction | S754A

Variants of: B4
Conditions: with tiam1_mouse Tiam1, Q60610
Remark: another data set of the same source

effect of a mutation on the interaction | Variant
disrupting interaction | E752K

Variants of: B4
Conditions: with tiam1_mouse Tiam1, Q60610
Remark: another data set of the same source

effect of a mutation on the interaction | Variant
disrupting interaction | C760S

Variants of: B4
Conditions: with tiam1_mouse Tiam1, Q60610
Remark: another data set of the same source

effect of a mutation on the interaction | Variant
decreasing interaction | P753A
